Measured values as given in patent US20100291160A1, “PHARMACEUTICAL SYSTEM FOR TRANS-MEMBRANE DELIVERY” (priority 2009, published 2010).
Where a name gives a salt, the structure may show the parent alone.

How the values were obtained:
[1] = in vitro diffusion of formulation across membrane mounted on vial; type: in vitro ADME, pig or sheep; conditions: for Optimal pH Conditions with Experimental Formulation: pH found to produce rapid diffusion across the membrane, pH adjusted with sodium bicarbonate or citric acid
From the text: A flat section of either pig or sheep intestinal membrane is mounted across the open top of the vial. A screw top having a 7 mm hole (approximate) is then screwed to the vial, thereby securing the membrane to the vial. The vial is inverted and immersed in an isotonic solution (e.g., saline). Diffusion of the formulation is then allowed to proceed. The isotonic solution may be agitated with a magnetic stirrer. A pipette is used to sampling the saline solution at designated time intervals (e.g., 5, 10, 30, 60, 90, 180, and 600 seconds).
Other membranes may be used, including commonly available natural casing for food preparation, or cell culture human membranes (e.g. membranes from MatTek Corporation; Ashland, Mass.). […] Samples may contain vitamin B12 and arginine. The pH of the formulation may be adjusted as necessary.
The following compounds were analyzed in in vitro tests and the pH of the solutions were adjusted to the values noted below with either sodium bicarbonate (solid) or citric acid to produce the desired testing pH solutions.

[2] = in vivo sublingual administration to rats, active agent in plasma by HPLC; set-up: species or system Sprague Dawley rats; conditions: sublingual experimental formulation in rats; ng/mL in serum relative to ng/mL in serum from published studies (conventional control dose)
Method: Formulations comprising a variety of active agents were also tested in vivo. A […] volume/400 g animal formulation was administered sublingually to rats (Sprague Dawley rats, with jugular catheters were purchased from Charles River Laboratories). All rats were in the 275-300 g weight range.
All dose formulations were prepared on the day of dosing. Prior to dose administration, each rat was anesthetized with ketamine:xylazine (7:1, 60 mg/kg, IM) and positioned (supine) so that the head and shoulders were in alignment to preclude drainage of the dose into the trachea or esophagus. The mouth was opened and the interior (including under the tongue) was swabbed with dry cotton applicators. The tongue was held up and the dose was dispensed (same technician for all applications) into the sublingual pocket. The tongue was allowed to return to a normal position and the mouth was allowed to close.
Blood samples were drawn via catheter or cardiac puncture either 10 minutes following administration, or over a time range including 30 seconds, 1 minute, 5 minutes and 15 minutes following administration. The concentration (ng/mL) of the active agent in rat plasma was calculated using high powered liquid chromatography (HPLC). Efficiency was calculated as (ng/mL administered active agent in serum)/(ng/mL active agent in serum from published studies).

Observed Plasma Levels [2] [%]	Molecule	Optimal pH Conditions with Experimental Formulation [1]	also measured
136.00	CCCC[C@H](NC(C)=O)C(=O)N[C@H]1CC(=O)NCCCC[C@@H](C(=O)O)NC(=O)[C@H](Cc2c[nH]c3ccccc23)NC(=O)[C@H](CCCN=C(N)N)NC(=O)[C@@H](Cc2ccccc2)NC(=O)[C@H](Cc2cnc[nH]2)NC1=O [Bremelanotide]	pH 6.0 to 8.0	
0 to 600	CNC[C@H](O)c1ccc(O)c(O)c1 [Epinephrine]	pH 5.0 to 7.0	
	CCCc1nn(C)c2c(=O)[nH]c(-c3cc(S(=O)(=O)N4CCN(C)CC4)ccc3OCC)nc12 [Sildenafil]	pH 6.8	
	CC[C@H](C)[C@H](NC(=O)[C@H](CCC(=O)O)NC(=O)[C@H](CO)NC(=O)[C@@H](NC(=O)[C@@H](N)CO)C(C)C)C(=O)N[C@@H](CCC(N)=O)C(=O)N[C@@H](CC(C)C)C(=O)N[C@@H](CCSC)C(=O)N[C@@H](Cc1cnc[nH]1)C(=O)N[C@@H](CC(N)=O)C(=O)N[C@@H](CC(C)C)C(=O)NCC(=O)N[C@@H](CCCCN)C(=O)N[C@@H](Cc1cnc[nH]1)C(=O)N[C@@H](CC(C)C)C(=O)N[C@@H](CC(N)=O)C(=O)N[C@@H](CO)C(=O)N[C@@H](CCSC)C(=O)N[C@@H](CCC(=O)O)C(=O)N[C@@H](CCCN=C(N)N)C(=O)N[C@H](C(=O)N[C@@H](CCC(=O)O)C(=O)N[C@@H](Cc1c[nH]c2ccccc12)C(=O)N[C@@H](CC(C)C)C(=O)N[C@@H](CCCN=C(N)N)C(=O)N[C@@H](CCCCN)C(=O)N[C@@H](CCCCN)C(=O)N[C@@H](CC(C)C)C(=O)N[C@@H](CCC(N)=O)C(=O)N[C@@H](CC(=O)O)C(=O)N[C@H](C(=O)N[C@@H](Cc1cnc[nH]1)C(=O)N[C@@H](CC(N)=O)C(=O)N[C@@H](Cc1ccccc1)C(=O)O)C(C)C)C(C)C [Teriparatide (rDNA Origin), Teriparatide]	pH 6.8	
169.00	CCCc1nn(C)c2c(=O)[nH]c(-c3cc(S(=O)(=O)N4CCN(C)CC4)ccc3OCC)nc12 [sildenafil citrate]		
	Adalimumab	pH 7.7	
	Enoxaparin Sodium	pH 8.0 to 6.0	
	Etanercept	pH 8	rate of absorption ([1]; at lower pH values (than approximately 8.0)): dramatically reduced by at least a factor of five times; transport of the drug after elimination of each of the cofactors of the formulation ([1]; in most tests): slight to substantial decreases; pH at which transport occurred ([1]; in vitro membrane test of Example 3): 8 pH; rates of membrane transport ([1]; pH adjusted to approximately 8.0): substantially increased
	Neupogen: a filgrastim (e.g., G-CSF, Neupogen) (protein, UniProt P09919 31-207, looked up, filgrastim) Granulocyte …: TPLGPASSLPQSFLLKCLEQVRKIQGDGAALQEKLVSECATYKLCHPEELVLLGHSLGIPWAPLSSCPSQALQLAGCLSQLHSGLFLYQGLLQALEGISPELGPTLDTLQLDVADFATTIWQQMEELGMAPALQPTQGAMPAFASAFQRRAGGVLVASHLQSFLEVSYRVLRHLAQP	pH 7.4	
